# Measured values published in patent US20260193326A1 (published 2026).
# B1: A4-053 (VHH)
# VHH: VQLQESGGGLVQPGGSLRLSCAASGSIFIINTMGWYRRAPGKQRELVAAVTRGGSTNYADSVKGRFTISRDNAKNTVYLQMNSLRPEDTAVYYCHVDEVRQSSWTTSNLWGQGTQVTVSS
# B2: A4-078 (VHH)
# VHH: VQLQESGGGLVQPGGSLRLSCLASGTMFSLNTMGWYRQAPGKQRELVATVTRGGSTNYADFVKGRFTISRDNAKNTVYLQMNSLRPEDTAVYYCHVDEVRDSSWTTSNLWGQGTQVTVSS
# B3: A4-058 (VHH)
# VHH: VQLQESGGGLVQPGGSLRLSCAASGSIFSINTMGWYRQAPAKQREIVATVTRDGSTNYAESVKGRFTISRDNAKNTVYLQMNSLRPEDTAVYYCHLDEVRQSTWTTSNLWGQGTQVTVSS
# B4: A4-070 (VHH)
# VHH: VQLQESGGGLVQPGGSLRLSCAASGSIFSINSMGWYRQAPGKWRELVATVTRGGSTNYANSVKGRFTISRDNAKNTVYLQMNTLRPEDTAVYYCHLDEVRDSSWTTSNLWGQGTQVTVSS
# B5: A4-080 (VHH)
# VHH: VQLQESGGGLVQPGGSLRLSCAASGSRFSLNTMGWYRQAPGKQRELVATVTRGGSTNYADFVKGRFTISRDNAKNTVYLQMNSLRPEDTAVYYCHVDELRESGWTTSNLWGQGTQVTVSS
# B6: A4-069 (VHH)
# VHH: VQLQESGGGLVQPGGSLRLSCAASGSIFTINSMGWYRQAPGKWRELVATVTRGGNTNYANSVKGRFTISRDNAKNTVYLQMNTLRPEDTAVYYCHLDEVRDSSWTTSNLWGQGTQVTVSS
# B7: A4-059 (VHH)
# VHH: VQLQESGGGAVQPGGSLRLSCAASGSHFSLNTMGWYRRAPGKQRELVATVTRGGSTNYADSVKGRFTISRDNAKNTIYLQMNSLRPEDTAVYYCHVDEVRQSTWTTSNLWGQGTQVTVSS
# B8: A4-066 (VHH)
# VHH: VQLQESGGGLVQTGGSLRLSCAASGRAFSLNTMGWYRQAPGKQRELVATVTRGGSTNYAGSVKGRFTISRDNAKNTVYLQMNSLRPEDTAVYYCHVDEVRESSWTTSNLWGQGTQVTVSS
# B9: A4-075 (VHH)
# VHH: VQLQESGGGLVQSGGSLRLSCAASGSMFSLNTMGWYRQAPGKQRELVATITRGGGTNYADSVKGRFTISRDNAKNTVYLQMNSLRPEDTAVYYCHVDELRQSSWTTSNLWGQGTQVTVSS
# B10: A4-065 (VHH)
# VHH: VQLQESGGGLVQSGGSLRLSCAASGRNFSLNTVGWYRQAPGKQRELVATVTRGGSTNYAGSVKGRFTISRDNAKNTVYLQMNSLRPEDTAVYYCHVDEVRESSWTTSNLWGQGTQVTVSS
# B11: A4-079 (VHH)
# VHH: VQLQESGGGLVQPGGSLRLSCAASGTRFSINTMGWYRQAPGKQRELVANVTPAGSTNYADSVKGRFTISRDNAKNTVYLQMNSLRPEDTAVYYCHVDELRDSSWTTSNLWGQGTQVTVSS
# B12: A4-063 (VHH)
# VHH: VQLQESGGGLVQPGGSLRLSCAASGRRFTINTMGWYRRAPGKQRELVATITRGGSTNYAGSVKGRFTISRDNPKNTVYLQMNSLRPEDTAVYYCHIDEVRQSSWTTSNLWGQGTQVTVSS
# B13: A4-057 (VHH)
# VHH: VQLQESGGGLVQPGGSLRLSCAASGSIFSINTMGWYRQAPGKQREKVAAVTRGGSTNYADSVKGRFTISRDNAKNTVYLQMNSLRPEDTAVYYCHVDEVRQSSWTTSNLWGQGTQVTVSS
# B14: A4-061 (VHH)
# VHH: VQLQESGGGLVQPGGSLRLSCAASGSRFSLNTMGWYRQAPGKQRELVATVTRGGSTNYANSVKGRFTISRDNAKNTVYLQMNSLRPEDTAVYYCHVDEVRQSTWTTSNLWGQGTQVTVSS
# B15: A4-084 (VHH)
# VHH: VQLQESGGGLVQPGGSLKLSCAASGSRFSLNTMGWYRQAPRKQREFVAAVTRGGNTNYGDFVKGRFTISRDNAKNTVYLQMNSLRPEDTAVYYCHVDELRESSWTTSNLWGQGTQVTVSS
# B16: A4-073 (VHH)
# VHH: VQLQESGGGLVQPGGSLRLSCAASGSNFSINTMGWYRQAPGKQREMVATVTRGGSTNYGDFVKGRFTISRDNAKNTVYLQMNSLRPEDTAVYYCHVDEIRQSSWTTSNIWGQGTQVTVSS
# B17: A4-082 (VHH)
# VHH: VQLQESGGGLVQPGGSLRLSCAASGSRFSLNTMGWYRQAPGKQRELVATVTRGGSTKYADFVKGRFTISRDNAKNTVYLQMNSLRPEDTAVYYCHVDELRESGWTTSNLWGQGTQVTVSS
# B18: A4-060 (VHH)
# VHH: VQLQESGGGLVQPGGSLRLSCAASGSTFSLNTMGWYRQAPGKQREIVATVTRGGSTNYAESVKGRFTISRDNAKNTVYLQMNSLRPEDTAVYYCHVDEVRQSTWTTSNLWGQGTQVTVSS
# B19: A4-081 (VHH)
# VHH: VQLQESGGGLVQPGGSLRLSCAASGSRFSLNTMGWYRQAPGKQRELVATVTRGGSTNYADSVKGRFTISRDNAKNTVYLQMNSLRPEDTAVYYCHVDELRESGWTTSNLWGQGTQVTVSS
# B20: A4-062 (VHH)
# VHH: VQLQESGGGLVQAGGSLRLSCAASGSSFSINAMGWYRQAPGKQRELVATVTRGGTTNYADSVKGRFTISRDNPKNTVYLQMNSLRPEDTAVYYCHLDEVRESSWTTSNLWGQGTQVTVSS
# Experiments:
# Assay in all cases: SPR, AAV amine-coupled to CM5 chip;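 note: nanobodies flowed as analyte at seven concentrations spanning 1–100 nM over immobilized AAV (500–800 RU), kinetic constants derived by fitting the binding curves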
# [1] = target: T1, AAV8 (adeno-associated virus 8)
# T1 construct: also called adeno-associated virus serotype 8
# Procedure: (§1) AAV was amine-coupled to a CM5 sensor chip at a density of 500-800 response units (RU). Nanobodies were injected at seven concentrations (1-100 nM) with a flow rate of 45 μL/min, and chip regeneration was performed using glycine-HCl (pH 1.5). Binding curves at different nanobody concentrations were used to calculate kinetic parameters (Kₐ, Kd, KD) (Table 2 and FIG. 2).
# [2] = target: T2, AAV9 (adeno-associated virus 9)
# T2 construct: also called adeno-associated virus serotype 9
# Procedure: as §1
# [3] = target: T3, AAV5 (adeno-associated virus 5)
# T3 construct: also called adeno-associated virus serotype 5
# Procedure: as §1
Binder,Kd [1] [nM],koff [1] [s⁻¹],kon [1] [M⁻¹ s⁻¹],Kd [2] [nM],koff [2] [s⁻¹],kon [2] [M⁻¹ s⁻¹],Kd [3] [nM],koff [3] [s⁻¹],kon [3] [M⁻¹ s⁻¹]
B1,15.7,0.00146,93200,2.6,0.00048,185000,7.52,0.00121,161000
B2,61.6,0.006,97500,215,0.00618,28800,52.7,0.00932,177000
B3,33.4,0.00173,51800,6.11,0.0012,196000,24.5,0.00129,52600
B4,20.9,0.00019,9090,35.5,0.00012,3380,86.8,0.00064,7370
B5,191,0.00138,7220,5.08,0.00074,146000,20.4,0.00194,95200
B6,11.6,0.00142,122000,9.34,0.00098,105000,3.58,0.0002,55800
B7,29,0.00094,32500,0.514,6e-05,117000,16.6,0.00091,54900
B8,21.6,0.002,92400,32.8,0.00101,30700,20.7,0.00191,92100
B9,9.57,0.00067,70000,9.74,0.00099,102000,28.9,0.00086,29800
B10,184,0.00095,5180,8.44,0.00139,165000,25,0.00155,61900
B11,1620,0.0019,1180,382,0.00051,1340,211,0.00083,3930
B12,439,0.0065,14800,81.6,0.00401,49100,128,0.00834,65000
B13,103,0.00031,3020,53.3,0.00049,9190,64.4,0.00027,4200
B14,530,0.00057,–,273,0.0013,4770,86.8,0.00055,6330
B15,12.8,0.00177,138000,2.28,0.0003,132000,0.364,6e-05,165000
B16,1140,0.00619,5420,1880,0.00292,1560,1140,0.00862,7530
B17,46.7,0.00017,3640,122,0.0004,3290,92.9,0.0005,5380
B18,6.63,0.00055,82900,69.2,0.00176,25400,2.45,0.00045,184000
B19,6.05,0.00105,174000,13.7,0.00131,95900,12.5,0.00146,117000
B20,1.39,0.00019,137000,1.83,6e-05,32800,0.0635,1e-05,157000
